From article doi:10.1101/099465

Biological target: Laminin-111 (UniProt P19137)
Assay: SPR

Kd: 47 nM
Substance: VEGFA165 (ligand)
